Data: publication PMC6462090

What was measured:
[1] = biological target: USP9X catalytic domain C1727A (human) (UniProt Q93008)
[2] = biological target: USP9X catalytic domain H1729A (human) (UniProt Q93008)

Ub-AMC (from UniProt P0CG48 1-76)
Km for hydrolysis of Ub-AMC, fold increase against WT [1]: 5 fold | Km for hydrolysis of Ub-AMC, fold increase against WT [2]: 7 fold
